The supplement of paper PMC12042874
± gives the uncertainty stated by the source.

Assay: amyloid nucleation score (Sup35N fusion, yeast selection) (log enrichment); library NNK2; higher = more nucleation; inactive = no reads after selection
In short: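 Plasmid inserts were Illumina-sequenced at input and output from psi-negative yeast expressing Sup35N fused to peptides of 20 random codons. The yeast were induced with 100 μM copper sulfate for 24 hours and grown 7 days at 30°C on medium lacking adenine and uracil, and sequences with under 100 input reads were excluded. Nucleation score is the DiMSum log enrichment of output over input reads, centred on the mode score of non-aggregating sequences.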

Row | Substance | amyloid nucleation score
1 | AGSQVVVMVIGVSTWAVVDG | 3.01 ± 0.14
2 | TVMLFIVHLPCDRTFYL | 0.682 ± 0.45
3 | LLIKSSCFCSLDVFFS | 3.69 ± 0.089
4 | LLRSLNLVG | 0.288 ± 0.65
5 | SKFNFIYCAGDQLSYRYRLG | -0.728 ± 1
6 | SSQCYYGPLFWSYEFRSYCV | -0.162 ± 0.46
7 | SVYREWLPSSSRVWCMSLSG | -0.317 ± 0.63
8 | DRPGDRSGTAWAWFRCETGG | 1.1 ± 0.31
9 | SVGVTVSRVASREGSSRSRA | 0.573 ± 0.36
10 | VLMYIWDLVGGSLSFKKVLF | inactive
11 | SPMNDLY | 0.041 ± 0.49
12 | LKDVGPYQRVRRGTVRYA | 0.756 ± 0.4
13 | REKVPYT | -0.428 ± 0.48
14 | WTVGRRELGCM | inactive
15 | LRLWHDYSFFLNKVSQVHSY | -1.12 ± 1.1
16 | RSRDRGRCWFMMSRGMGGVA | 0.483 ± 0.56
17 | ELHLFHATPRY | 6.61 ± 0.067
18 | IIPFRRSTVRLVRCLWISGL | 1.13 ± 0.31
19 | QYLLIIMFRYYLYCGVQRNY | -0.121 ± 1.1
20 | ALVAWVVSYYLALLCSPRQS | -0.1 ± 0.74
21 | NSWWTVLFRFYKALSLPRAR | -0.839 ± 0.78
22 | TRAWITWAKVWRSQMNRGKA | 0.699 ± 0.54
23 | NNEFYRRYVGNYSLVMVMGN | -0.088 ± 1.1
24 | TVAKSLVYLSVCQVAA | 0.035 ± 1
25 | RSNFIQDSLSYFDILAIRRG | inactive

Row | Substance | amyloid nucleation score
26 | RDMLRQMNSYQEYLFVRLDN | -0.763 ± 1.1
27 | LNHIYYLAIQTTACILTMGE | -1.07 ± 0.63
28 | RAFRKAGMYSYLSG | 3 ± 0.056
29 | ITSLCYNVREFFWGRYVSRV | inactive
30 | ELGHDYYSCCGFSAREYMEH | 4.56 ± 0.065
31 | RSCYNFGKGLCVFMTLARLW | -0.82 ± 0.48
32 | SCRRADFGMAVVHSLLVCGE | 0.709 ± 0.66
33 | DNRGKLDWAPSSVVSVWLIC | 3.74 ± 0.089
34 | NGRRFLSYSVMLRDLRYRSC | 0.138 ± 0.76
35 | HFDSYNRNSMSSRPSVGILS | -0.441 ± 1.1
36 | IYNLWYGISPSVMGGLGFLR | 3.82 ± 0.062
37 | KWDHPKEVFCSVRTSGRGVE | 2.04 ± 0.072
38 | NIWRRSSSV | inactive
39 | KLPLFTSMCCTGHFPPITPP | 0.409 ± 0.8
40 | TIYMMSRDFRF | 4.748 ± 0.028
41 | LSNLMRISMIFEYAAPLFRF | inactive
42 | FQCLVFLLIGRFGVRHWT | -0.675 ± 1.1
43 | ICVMSQCTQMYRMKICGSLQ | 0.568 ± 0.29
44 | RKNVYFIFPIISSLYKV | 7.009 ± 0.049
45 | YNGLMNISIATMC | -1.17 ± 0.74
46 | VDRWDGSVHCSIGGNFYCSG | -0.545 ± 0.54
47 | DACYGITLDCCETLARSMSC | -0.382 ± 0.76
48 | ESPTVCPANF | -0.248 ± 0.65
49 | CNGLAQKIILSTRRLLLVPG | 0.537 ± 0.34
50 | GECHEWV | -0.837 ± 1.1

Row | Substance | amyloid nucleation score
51 | LILTCPCMCRFYVWGSTQYR | -0.313 ± 0.39
52 | YEIRWFRGLIK | 0.495 ± 0.43
53 | GAVHGMT | 0.538 ± 0.55
54 | MNFCNHPLMDLMVSDLAWWM | 0.112 ± 0.37
55 | QLNDWSYMVKFSAV | -0.466 ± 0.64
56 | TGLKIG | 0.038 ± 0.29
57 | VIYRSNLASRGMNHAVFSKR | -0.92 ± 0.28
58 | RVYPFGRTRIFKTM | 1.33 ± 0.15
59 | VKTKAVTRVMIP | 0.589 ± 0.35
60 | EIIFVMPVFYIFKTLCLLSA | 0.332 ± 0.16
61 | PCCVKSELGLPQWWSVYL | 5.645 ± 0.056
62 | NVPKSSINEWSLPDLLVLNV | 0.923 ± 0.81
63 | SWWAY | 0.69 ± 0.62
64 | YDLDEGYSLMFVPQEQICAE | inactive
65 | TTIFYKPLQCLLGLFFYP | -0.623 ± 1
66 | DLLQREIDRSIVRLWIMEKG | 0.252 ± 0.49
67 | GCWSPKLSIGRRSRSALYRG | 1.2 ± 0.66
68 | NYRFVCWDYISWVMVWTSI | inactive
69 | YKEVWY | -0.284 ± 0.45
70 | WCFLT | -0.343 ± 1.1
71 | LVVSIIRGYLFPCGDPIFLW | inactive
72 | PGAADRTVRYGSRRPPD | -0.003 ± 0.41
73 | KLVGMPFSSVACNSFKHRSE | 0.408 ± 0.16
74 | FINCSHQCHSIGIRVLLNCR | 0.915 ± 0.19
75 | IREGLFRVTIDYSSMLCSGR | 3.01 ± 0.12

Row | Substance | amyloid nucleation score
76 | YVLKVVIRRLRRSCVSCTWH | -0.109 ± 0.25
77 | LSCWAYHVSWGWWHYIFAW | 1.11 ± 0.38
78 | ASFMSISVYND | -0.32 ± 0.63
79 | LLCFHTHLRKAMGVTINSIS | -1.19 ± 0.49
80 | LECNDA | 0.322 ± 0.51
81 | IFYYG | -0.945 ± 0.36
82 | YMFDFYFVLYESKYAWINPK | inactive
83 | LNVVARMFYLSLSSSGNWSG | -0.849 ± 0.64
84 | FLNHCDYCVVKSRLVDMKLN | -0.296 ± 0.76
85 | GSRDHKPWTNRMWFTYTVIR | 0.028 ± 0.17
86 | YYSSLTYCMLQWYSLFWWGH | 0.658 ± 0.51
87 | RYTCRLFTDTYDSSVVLGAM | 1.17 ± 0.37
88 | YPCKSDF | -1.66 ± 0.45
89 | LSRFFFNRAPRKVTGLSVRY | 0.96 ± 0.21
90 | GYRYWRTACSALFRWSEMC | 0.948 ± 0.26
91 | LLKLNGILVCLDRGVMPHDS | 2.57 ± 0.092
92 | PCFRWSRGRKSCECCHVGYM | 0.122 ± 0.25
93 | WQRRIGKFCDKQWSFQMMVH | -0.021 ± 0.63
94 | NVYVESSWVLARVIWRFYFD | -0.722 ± 0.62
95 | MLKSHVI | -0.374 ± 0.32
96 | GRRMIRAERTIRLIIHVRSL | 0.767 ± 0.6
97 | INWCSDMHNCVCLTIGQWLV | 3.36 ± 0.16
98 | SMPMGGERIWVIYCRFQVLS | -0.585 ± 0.35
99 | PLGSNACPTHFSCD | inactive
100 | IAIPSDF | -0.214 ± 0.49

Row | Substance | amyloid nucleation score
101 | QGGMMWGLLSYCEVLDDSDV | -0.08 ± 1
102 | ECGVLFV | 0.827 ± 0.6
103 | PHRKV | -0.536 ± 0.76
104 | ICWPMGICLNNSDSVLLGEC | inactive
105 | RASASNR | -0.559 ± 0.36
106 | AQLRKMSSVNYV | -0.825 ± 1.1
107 | LSRSDAVRAFFRIMVLWKVV | -0.32 ± 0.63
108 | MMIFLGLTSFKFLMSAVNTM | 0.628 ± 0.38
109 | VSGSSHVVKWVMKEGVIFI | inactive
110 | RYGRDGDRIIYNVCDFFFSG | 6.475 ± 0.047
111 | LLSFLMRSRRFLSTVKY | -0.931 ± 0.78
112 | TGAFPDCLALMYKGAEEVER | 0.011 ± 0.28
113 | CARYLIEVRYKGKKIQYSM | -0.837 ± 0.39
114 | LPLKNRVVDTCRKRFVGEVG | -0.19 ± 1
115 | AQTSWNILFAKS | -0.501 ± 0.64
116 | DKGEEPELIV | 0.742 ± 0.16
117 | LISGRMHNVCEPGAKSRTLR | 0.76 ± 0.18
118 | KMAIGLCVSTLQ | 0.333 ± 0.42
119 | CSSDSIYSSWWFSLYNITGE | inactive
120 | RNLDFIA | 3.33 ± 0.068
121 | SDCVTFATCWM | 0.096 ± 0.49
122 | LHSYVFTKGSRTQCRWRKNP | 0.07 ± 0.28
123 | GQFGVCITSPARQLSYD | inactive
124 | YGAWRFGRLALSRRPSYCGM | -0.271 ± 0.27
125 | YIRCYRNV | -0.536 ± 0.33

Row | Substance | amyloid nucleation score
126 | ERDSGPEYIVCIQVVIYLGM | 3.06 ± 0.052
127 | DFAFAFVVGTVLAISICVKH | -0.459 ± 0.56
128 | ENEWCCLWGRAKRVAGVQEV | 0.495 ± 0.62
129 | VRIYTHWTRSYRPKFRSTWT | 0.641 ± 0.74
130 | DSGVEMYLFNSRFLRSLGND | 3.65 ± 0.052
131 | GMESSMVRNVEHVKERVYIE | 3.6 ± 0.1
132 | YSCQFFCSVLLCLYVSHITN | inactive
133 | SYDSPPSEHLVPVAQSISVP | 1.17 ± 0.44
134 | LSDIRWMSCGGVL | -0.602 ± 1.1
135 | REKVVKEPRTDESFVGRGGS | 0.724 ± 0.28
136 | FIVCALIKEHILTYPGKVFV | inactive
137 | VNSNINFMEGYGCFKKIVNF | -1.36 ± 0.75
138 | MDNNVNNRSPFLICRMMDNI | inactive
139 | QIFVR | 0.689 ± 0.55
140 | YTPHYLQCRLFCIPLRLNRS | -1.09 ± 0.49
141 | INQKDRRGNPYY | -0.042 ± 0.79
142 | SILFFKGGLRRSLEHLACTA | 0.635 ± 0.52
143 | NVWVSDFVGERAGDLHLSLY | 0.025 ± 1.1
144 | AFLRLRWNSNPVISGTRNRR | 0.777 ± 0.48
145 | YFDSEPCLHFPCLVEGFRGW | -0.54 ± 1.1
146 | VTKSYITRSVFSVGNYSETS | -0.226 ± 1.1
147 | DRGECYDLIGLCHSPVCCYP | -0.038 ± 0.42
148 | FVKWIMY | 4.09 ± 0.098
149 | RCGFLWCRHFPATSELGCVL | 0.752 ± 0.8
150 | RVLVSS | 0.713 ± 0.8

Row | Substance | amyloid nucleation score
151 | VGSSRFLRDGVTRGLSMSGS | -1.07 ± 0.41
152 | IQIFGVTYGSG | -0.007 ± 0.79
153 | CGHVTMHRWGMKNIMLVYAV | -0.889 ± 1
154 | FIAGLS | -0.734 ± 0.76
155 | TRADDL | 0.205 ± 0.4
156 | GQYKTGVRGSRLNLPLMLTE | 0.328 ± 0.19
157 | HCHWWEGWRVEVYCLFPVTT | 7.852 ± 0.064
158 | HCGYRVIELDLSRLASRSLR | 0.195 ± 0.32
159 | GYFKRHLRM | -0.619 ± 1
160 | FLFFGVGMMCEARDAPMVAF | 0.073 ± 1.1
161 | TICFIFHSFRLFRIDAY | 4.54 ± 0.098
162 | YIWYCRMPTSSNTVSNL | inactive
163 | NPWVRFVVSCLYAVSQQCGL | 4.66 ± 0.07
164 | LCARALLH | 0.905 ± 0.32
165 | KLYFCYLEI | -1.25 ± 1.1
166 | KCRISAMICDKAIFRVKRAC | 1.13 ± 0.4
167 | DLFVSGTVETFPANWGGMSR | 0.665 ± 0.42
168 | MTRVSQFVVVP | 1.69 ± 0.13
169 | SVLELYRTSIFYLRLVSNLL | 3.52 ± 0.079
170 | VPTLCLVLDRLLDSNR | -1.39 ± 0.62
171 | ELVVHFFLFIMGACLHVENQ | -0.368 ± 1
